This is an account of results in PMC9001735, “Insights into the inhibition of type I-F CRISPR-Cas system by a multifunctional anti-CRISPR protein AcrIF24”.

Values joined by “and” are separate entries in the source; they are usually repeats but may differ in a detail not shown here. Equal values may be shown once.

The test system of data set [1] is AcrIF24 (Pseudomonas aeruginosa prophage). Put plainly: EMSA. As to conditions: EMSA: 20 mM HEPES pH 7.5, 150 mM NaCl, 5% glycerol, 37 C 30 min, 1 uM DNA (20 nM for Kd), MST: 20 mM HEPES pH 7.5, 150 mM KCl. (Mobility shift assays separate free from complexed probe on a gel.)
Data set [2] deals with AcrIF24 Δmiddle domain (Pseudomonas aeruginosa prophage). The data set can be described thus: SEC-MALS; Superdex-200 10/300 GL, 20 mM HEPES pH 7.5, 200 mM NaCl; AcrIF24 1.5 mg/mL, AcrIF24ΔMD 15 mg/mL; gel filtration coupled with static light scattering. (In general: In gel filtration, larger molecules generally elute earlier.)
The target in data set [3] is crRNA-guided surveillance complex (Csy complex) of the type I-F CRISPR-Cas system from P. aeruginosa (P. aeruginosa) (UniProt Q02ML9). The data set can be described thus: SEC-MALS; co-expressed and purified Csy-AcrIF24 complex, 1.5 mg/mL; Superdex-200 10/300 GL, 20 mM HEPES pH 7.5, 200 mM NaCl.
The target is the same in data set [4]. Put plainly: SEC-MALS; mix of AcrIF24 and Csy complex (7.5 mg/mL), AcrIF24:Csy 5:1; Superdex-200 10/300 GL, 20 mM HEPES pH 7.5, 200 mM NaCl.
Data set [5] has the same target. The data set can be described thus: SEC-MALS; mix of AcrIF24 and Csy complex (7.5 mg/mL), AcrIF24:Csy 1:1; Superdex-200 10/300 GL, 20 mM HEPES pH 7.5, 200 mM NaCl.
The target in data set [6] is AcrIF24 (full-length, wild type) (Pseudomonas aeruginosa prophage). Put plainly: SEC-MALS; Superdex-200 10/300 GL, 20 mM HEPES pH 7.5, 200 mM NaCl; AcrIF24 1.5 mg/mL, AcrIF24ΔMD 15 mg/mL; gel filtration coupled with static light scattering.
For data set [7], the target named is crRNA-guided surveillance complex (Csy complex) of the type I-F CRISPR-Cas system from P. aeruginosa (P. aeruginosa) (UniProt Q02ML9). Put plainly: SPR; Biacore 8K, 25 °C; Csy complex immobilised on a CM5 chip (~10,000 RU), AcrIF24 injected; 20 mM HEPES pH 7.5, NaCl, 0.05% Tween-20; 1:1 Langmuir model. Background: In SPR one partner is held on a chip, and binding of the other changes the refractive index at the surface.

The target is the same in data set [8]. Put plainly: SEC-MALS; mix of AcrIF24 and Csy complex (7.5 mg/mL), AcrIF24:Csy 1:5; Superdex-200 10/300 GL, 20 mM HEPES pH 7.5, 200 mM NaCl.
Data set [9] concerns AcrIF24ΔMD (Pseudomonas aeruginosa prophage). The data set can be described thus: EMSA. Conditions: EMSA: 20 mM HEPES pH 7.5, 150 mM NaCl, 5% glycerol, 37 C 30 min, 1 uM DNA (20 nM for Kd), MST: 20 mM HEPES pH 7.5, 150 mM KCl.
The target of data set [10] is Csy complex;AcrIF24 (Pseudomonas aeruginosa;Pseudomonas aeruginosa prophage) (UniProt Q02ML9+Q02MM0+Q02MM1+Q02MM2). The data set can be described thus: MST. As to conditions: Kd only in figure, EMSA: 20 mM HEPES pH 7.5, 150 mM NaCl, 5% glycerol, 37 C 30 min, 1 uM DNA (20 nM for Kd), MST: 20 mM HEPES pH 7.5, 150 mM KCl.
In data set [11] the target is Csy complex;AcrIF9 (Pseudomonas aeruginosa;) (UniProt Q02ML9+Q02MM0+Q02MM1+Q02MM2). The data set can be described thus: MST. Conditions: Kd only in figure, EMSA: 20 mM HEPES pH 7.5, 150 mM NaCl, 5% glycerol, 37 C 30 min, 1 uM DNA (20 nM for Kd), MST: 20 mM HEPES pH 7.5, 150 mM KCl.
A further data set has as its target T1, Csy complex (Pseudomonas aeruginosa, UniProt Q02ML9;Q02MM0;Q02MM1;Q02MM2 1-434;1-327;1-342;1-187).
T1 sequence 1: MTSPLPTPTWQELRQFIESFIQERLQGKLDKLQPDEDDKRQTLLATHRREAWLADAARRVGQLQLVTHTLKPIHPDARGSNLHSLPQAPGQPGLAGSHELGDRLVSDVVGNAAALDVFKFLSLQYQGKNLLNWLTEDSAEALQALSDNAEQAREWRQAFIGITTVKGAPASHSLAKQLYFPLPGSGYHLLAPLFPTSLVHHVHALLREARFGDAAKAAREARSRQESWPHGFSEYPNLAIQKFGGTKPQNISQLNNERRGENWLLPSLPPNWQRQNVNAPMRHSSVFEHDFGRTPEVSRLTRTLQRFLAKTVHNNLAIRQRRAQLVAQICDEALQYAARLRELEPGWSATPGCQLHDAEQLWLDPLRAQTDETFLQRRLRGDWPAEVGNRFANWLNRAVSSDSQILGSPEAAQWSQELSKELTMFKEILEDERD
T1 sequence 2: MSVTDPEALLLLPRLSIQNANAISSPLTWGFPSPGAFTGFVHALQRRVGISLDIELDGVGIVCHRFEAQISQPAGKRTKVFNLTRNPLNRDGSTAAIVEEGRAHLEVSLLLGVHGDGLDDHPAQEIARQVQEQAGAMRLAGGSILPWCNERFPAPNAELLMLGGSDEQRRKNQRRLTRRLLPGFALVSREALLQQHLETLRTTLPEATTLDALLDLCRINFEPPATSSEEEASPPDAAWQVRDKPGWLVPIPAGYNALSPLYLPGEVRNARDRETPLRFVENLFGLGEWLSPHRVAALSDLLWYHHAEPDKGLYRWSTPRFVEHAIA
T1 sequence 3: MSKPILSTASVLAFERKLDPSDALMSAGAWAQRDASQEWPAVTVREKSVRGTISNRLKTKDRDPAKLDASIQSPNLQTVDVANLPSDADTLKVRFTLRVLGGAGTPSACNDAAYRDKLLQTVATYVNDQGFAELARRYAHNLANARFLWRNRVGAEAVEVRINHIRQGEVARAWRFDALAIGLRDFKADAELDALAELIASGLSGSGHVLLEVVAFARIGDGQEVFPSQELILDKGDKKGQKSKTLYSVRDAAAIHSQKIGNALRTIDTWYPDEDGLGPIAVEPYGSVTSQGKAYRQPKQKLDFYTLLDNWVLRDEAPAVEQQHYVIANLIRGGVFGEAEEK
T1 sequence 4: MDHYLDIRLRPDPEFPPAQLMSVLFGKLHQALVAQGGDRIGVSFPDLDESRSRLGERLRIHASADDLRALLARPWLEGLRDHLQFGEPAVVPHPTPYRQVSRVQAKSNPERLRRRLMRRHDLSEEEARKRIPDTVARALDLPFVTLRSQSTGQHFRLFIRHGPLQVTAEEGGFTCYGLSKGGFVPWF
Put plainly: EMSA; EMSA: 20 mM HEPES pH 7.5, 150 mM NaCl, 5% glycerol, 37 C 30 min, 1 uM DNA (20 nM for Kd); MST: 20 mM HEPES pH 7.5, 150 mM KCl, 5% glycerol. Conditions: protein: recombinant, copies: 1;1;6;1, blunt.

The Kd is the constant that tells how readily two partners part at equilibrium. “GAGCGACTACGACATGAGCGCGCAGCTAAGACCGCCCGTAGATGCGTCGAGCGT (double strand) [dsDNANS 54 bp]” returned a Kd in [1] of 3460 nM.

Usually stoichiometry N stands for the number of molecules, sites or subunits per partner or assembly. Turning to “AcrIF24 Δmiddle domain (domain or fragment)”, the stoichiometry N in data set [2] came out at 2.

As to “AcrIF24 co-expressed with the Csy complex (natural protein)”, the stoichiometry N (AcrIF24 per Csy complex) in data set [3] came out at 1.

As a reminder, the koff is the first-order rate constant of dissociation. The kon is a measure of how fast the partners come together. Low readings indicate slower complex formation, high ones faster complex formation. Consider “AcrIF24 (full-length, wild type) (natural protein)”, for which, in data set [4], the stoichiometry N (AcrIF24 per Csy complex) was 2 and 1. The molecule also returned a stoichiometry N (AcrIF24 per Csy complex) in [5] of 1. Also, the stoichiometry N in [6] was determined as 2. In data set [7], the Kd was 4.21 nM, the koff came out at 0.00118 s⁻¹ and the kon is 281000 M⁻¹ s⁻¹. Besides, in data set [8], the stoichiometry N (AcrIF24 per Csy complex) was determined as 1.

On to “GCATAGCTCGATCCGAGCTAGTA (double strand) [IR23-24 WT]”, for which the Kd in data set [9] is 49.1 nM; in [1], 20.2 nM.

With “GAGCGACTACGACATGAGCGCGCAGCTAAGACCGCCCGTAGATGCGTCGAGCGT [ssDNANS 54 nt]”, the binding signal (fold weaker than ssDNASP) in data set [10] and in data set [11] was 10 in each case.

B1: dsDNANS 54 bp (dsDNA)
DNA 1: GAGCGACTACGACATGAGCGCGCAGCTAAGACCGCCCGTAGATGCGTCGAGCGT
DNA 2: ACGCTCGACGCATCTACGGGCGGTCTTAGCTGCGCGCTCATGTCGTAGTCGCTC
For the molecule B1, the binding result in the data set with Csy complex (label: 5'-FAM or 3'-FAM) is recorded as “no binding”.

B2: dsDNASP 54 bp (dsDNA)
DNA 1: GGAAGCCATCCAGGTAGACGCGGACATCAAGCCCGCCGTGAAGGTGCAGCTGCT
DNA 2: AGCAGCTGCACCTTCACGGCGGGCTTGATGTCCGCGTCTACCTGGATGGCTTCC
For the molecule B2, the binding result with Csy complex (label: 5'-FAM or 3'-FAM on target strand, unlabelled in some assays) is “binds”.
